In one experiment the target is T1, hMPV PostF trimer (human metapneumovirus, strain B2).
T1 construct: also called MPV PostF (dPFv1)
Put plainly: BLI, mAb on anti-human Fc sensor. Background: In BLI a coated tip is dipped into the sample, and binding shifts an interference pattern.

Experiment [1] concerns the target T2, Processed stabilized hMPV PreF trimer (115BV) (human metapneumovirus, strain B2).
T2 construct: also called Processed hMPV PreF trimer; processed PreF
Put plainly: BLI, mAb on anti-human Fc sensor.

For experiment [2], the target named is T3, Unprocessed hMPV PreF trimer (human metapneumovirus, strain B2).
T3 construct: also called Unprocessed hMPV WT PreF trimer; unprocessed hMPV PreF trimeric antigen
Description: BLI, mAb on anti-human Fc sensor.

The target in experiment [3] is T2, Processed stabilized hMPV PreF trimer …. Description: BLI, ratio to unprocessed PreF trimer.
Experiment [4] deals with F protein of hMPV B virus (human metapneumovirus subtype B). Description: cell-based or functional assay.
Experiment [5] addresses F protein of hMPV A virus (human metapneumovirus subtype A). Put plainly: cell-based or functional assay.
Experiment [6] has as its target F protein of RSV B/Washington virus (respiratory syncytial virus B, …). Description: cell-based or functional assay.

B1: M3D03 (antibody, V domains shown)
VH: QVQLVQSGAEVKKPGASVKVSCKASGYTFTSYGISWVRQAPGQGLEWMGWISAYNGNTNYAQKLQGRVTMTTDTSTSTAYMELRSLRSDDTAVYYCARDAPFGRDDGYGMDVWGQGTTVTVSS
VL: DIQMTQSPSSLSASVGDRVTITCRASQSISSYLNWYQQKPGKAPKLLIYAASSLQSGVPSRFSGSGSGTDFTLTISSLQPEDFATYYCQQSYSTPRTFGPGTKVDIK
notes: IgG
With B1, the Octet binding response was -0.054 nm with hMPV PostF trimer, 0.0286 nm in experiment [1] and 0.242 nm in experiment [2]. Further, the “processed/unprocessed PreF trimer binding ratio” value in experiment [3] was determined as 0.12.

B2: M2B04 (antibody, V domains shown)
VH: QVQLVQSGPEVKKPGASVKVSCKASGYSITTYGIDWVRQAPGQGLEWIGWSSAHTGNTNYAEKFQGRVTMTTDTSTYTTYMELRSLKSDDTAVYYCAMGAYTSSRNWFDPWGQGTLVIVSS
VL: EIVLTQSPATLSLSPGERATLSCRASQNINNFLAWYQQKAGQAPRLLIYDASNRATGIPGRFSGSGSGTDFTLTISSLEPEDFAVYYCQQRANWPLTFGGGTKVEVK
notes: IgG
As to B2, the Octet binding response with hMPV PostF trimer turned out to be 0.0152 nm; in experiment [1], 0.125 nm; in experiment [2], 0.328 nm. Moreover, the “processed/unprocessed PreF trimer binding ratio” value in experiment [3] stood at 0.38.

B3: M3B12 (antibody, V domains shown)
VH: QVQLVESGGGVVQPGGSLRLSCAASGFTFSSYGMHWVRQAPGKGLEWVAFIRYDGSNKYYADSVKGRFTISRDNSKNTLYLQMNSLRAEDTAVYYCAKDSGSYYYYYYMDVWGKGTTVTVSS
VL: not shown
notes: IgG
With B3, the Octet binding response with hMPV PostF trimer is 0.417 nm; in experiment [1] it was 0.0102 nm; in experiment [2], 0.157 nm. Moreover, in experiment [3], the “processed/unprocessed PreF trimer binding ratio” value was determined as 0.07.

B4: M1D2 (antibody, V domains shown)
VH: QVQLQESGPGLVKPSGTLSLTCTVSGGSVNSDHWWTWVRQSPETGLEWIGELNHIGTFNYNPSFKSRATISIDTSKNQFSLTLTSVAAADTAVYYCARRPPPLPEYFYYYFMDVWGNGTTVTVSS
VL: DIQMTQSPSSLSASVGDRVTITCRTSQSIRGHINWYQQKPGKGPKLLIYGASSLQSGVPSRFSGSGSGTDFTLTISSLQAEDFATYYCQQSYSNPYSFGRGTKLEIKR
Take B4: the “PRNT IC50” value in experiment [4] is 0.0124 µg/mL; in experiment [5], 0.0117 µg/mL.

B5: M3A04 (antibody, V domains shown)
VH: QVQLVESGGGVVQPGRSLRLSCAASGLTFSTYVMHWVRQAPGKGLEWVAVISYDGTNEHYADSVKGRFTISRDNSKNTLYLQMNSLRPEDTAVYYCARGTADYDVWSGSAWGGFDYWGQGTLVTVSS
VL: DIQMTQSPSSLSASVGDRVTITCRASQSISSYLNWYQQKPGKAPKLLMYTVSSLPSGVPSRFSGSGSGTDFTLTISSLQPEDFATYYCQQSYNIPYTFGQGTKLEIK
notes: IgG
On to B5, for which the Octet binding response with hMPV PostF trimer is -0.0261 nm; in experiment [1], 0.0846 nm; in experiment [2], 0.373 nm. In experiment [3], the “processed/unprocessed PreF trimer binding ratio” value is 0.23.

B6: M1C7 (antibody, V domains shown)
VH: QVQLVESGGGLVQPGRSLRLSCAASGFTFSSYAMHWVRQAPGKGLEWVAIITYDGSGKYYADSLEGRITISRDDPKSMLYLHMRSLTAEDTAVYYCVKSGSFSSAFWLEDWGQGTLVTVSS
VL: EIVLTQSPATLSLSPGERATLSCRASQSISNFVAWYQQKPGQAPRLLIYDASNGATGTPARFSGSGSGTDFTLTISSLEPEDFAVYYCQQRSTWTFGQGTKVEIKR
Take B6: the “PRNT IC50” value turned out to be 1.1 µg/mL in experiment [6], 0.0085 µg/mL in experiment [4] and 0.0083 µg/mL in experiment [5].

B7: M2D02 (antibody, V domains shown)
VH: QVQLVQSGAEVKKPGSSVKVSCKASGGTLTRYTISWVRQAPGQGLEWMGRIIPFLDIANYAPRFQGRVTMTADKSTSTAYMELSSLTSQDTAIYYCARDHSGNYFDLWGQGTLVTVSS
VL: EIVMTQSPATLSVSPGERATLSCRASQSVTSNLAWYQRKPGQAPRLLIYGASTGATDIPGRFSGSGSGTEFTLTISGLQSEDFAVYYCQQYDHWPRTFGQGTKVEIK
notes: IgG
With B7, the Octet binding response is 0.541 nm with hMPV PostF trimer, 0.0468 nm in experiment [1] and 0.216 nm in experiment [2]. The “processed/unprocessed PreF trimer binding ratio” value in experiment [3] stood at 0.22.

B8: M3A12 (antibody, V domains shown)
VH: QVQLQESGPQLVKPSQTLSLTCTVSGDSISSSDYCWSWIRQSPGKGLEWIGHSVYSGDTQYNPSLKSRLSISVDTSKNQFSLRLRSVTAADTAVYYCARGNDFWSGSFDYWGQGALVIVSS
VL: DIQMTQSPSSLSASVGDRVTITCRASQSIGTYLNWYQQKPGKAPKVLIYAASSLQSGVPSRFSGRGSGTDFTLTVSSLQPEDFASYYCQQSYTKPYTFGQGTKLEIK
notes: IgG
For the molecule B8, the results for the Octet binding response (in the experiment with hMPV PostF trimer; in experiment [1]; in experiment [2]) were 0.0469 nm, 0.0766 nm and 0.31 nm, respectively. In addition, the “processed/unprocessed PreF trimer binding ratio” value in experiment [3] stood at 0.25.

B9: M1A08 (antibody, V domains shown)
VH: QVQLVQSGAEVKKPGASVKVSCKASGVTLTDYYFHWIRQAPGQALEWMGRINPARGGTHYAEKFEDRVTMTTDTSTNTVYMDLSSLRSDDTAVYYCARSGSTHNIYSGFYAFDHWGQGTLVTVSS
VL: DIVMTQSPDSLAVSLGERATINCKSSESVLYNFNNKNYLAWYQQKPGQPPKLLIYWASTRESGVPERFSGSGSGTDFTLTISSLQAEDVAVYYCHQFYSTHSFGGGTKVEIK
Consider B9, for which the “PRNT IC50” value worked out at 0.72 µg/mL in experiment [4] and 2.27 µg/mL in experiment [5].

B10: M4B11 (antibody, V domains shown)
VH: QVQLVQSGTEVQTPGASVKVSCKTSGYIFTGYFMHWVRQAPGQGFEWMGWVNPYSGATTYAQKFQGRVTMTRDTSISTVYMELSRLTSDDTAIYYCAKDTSNSGPDLLEHWGQGTLVIVSS
VL: EIVLTQSPATLSLSPGERATLSCRASQSISNFLVWYQRKPGQAPRLLIFDVSKRATGIPTRFSGSGSGTDFTLTISSLEPEDFAVYYCQQRSNWPPGYTFGQGTKLEIK
Regarding B10, the “PRNT IC50” value is 0.238 µg/mL in experiment [4] and 0.652 µg/mL in experiment [5].

B11: M2E07 (antibody, V domains shown)
VH: EVQLVESGGGLVQTGGSLRLACAASGFTFSSYAMSWVRQAPGKGLEWVSTITESGDDAYYADSVKGRLTISRDNSKNTLFLHLNGLRSEDTARYYCAKDMGLYKSSWYGNFFYYYYMDVWGEGTTVTVSS
VL: QSALTQPASVSGSPGQSITISCTGSSSNIGSFDLISWYQQHPGKAPKFIIYEGDKRPSGVSYRFSGSKSGSTASLTISGLQAEDEAYYYCCSYARSRTLVFGGGTKVTVL
notes: IgG
B11: the results for the Octet binding response (with hMPV PostF trimer; in experiment [1]; in experiment [2]) were 0.0137 nm, 0.0476 nm and 0.216 nm, respectively. Further, the “processed/unprocessed PreF trimer binding ratio” value in experiment [3] is 0.22.

B12: M3B04 (antibody, V domains shown)
VH: QVQLQESGPGLVKPSETVSLTCTVSGGSISSNNWWSWVRQSPGKGLEWIGEIYHSGSTNFNPSLKSRVTISVDKSKNHFSLKLGSLTAADTAVYYCARRPNDYGDYSYYYYYYMDVWGKGTTVTVSS
VL: EIVLTQSPATLSLSPGESATLSCRASQSINRNLAWYQQKPGQAPRLLIYDASNRATGIPARFSGSGSGTDFTLTISSLEPEDFAVYYCQQRSHWVTFGQGTRLEIK
notes: IgG
B12: the Octet binding response with hMPV PostF trimer was 0.446 nm; in experiment [1], 0.0297 nm; in experiment [2], 0.177 nm. Besides, the “processed/unprocessed PreF trimer binding ratio” value in experiment [3] is 0.17.

B13: M3E09 (antibody, V domains shown)
VH: EVQLVESGGGVVRPGGSLRLSCAASGFRFDDYAMNWVRQAPGKGLEWVSGINWIGGTTKYADSVKGRFTISRDNTKNSLYLQMNSLRAEDTALYYCARGVGYYYYYMDVWGRGTTVTVSS
VL: EIVLTQSPGTLSLSPGERATLSCRATQSVSSNYLAWYQQKPGQAPRLLIYDASSRAIGIPDRFSGSGSGTDFTLTISRLESEDFAVYYCQQYGSSPETFGQGTKVEIK
notes: IgG
On to B13, for which the Octet binding response in the experiment with hMPV PostF trimer was -0.0506 nm; in experiment [1], 0.0948 nm; in experiment [2], 0.226 nm. Besides, in experiment [3], the “processed/unprocessed PreF trimer binding ratio” value was found to be 0.42.

B14: M3D04 (antibody, V domains shown)
VH: EVQLVESGGDLVEPGGSLRLSCAASGFTFESAWMSWVRQAPGKGLEWVGRIKSKLDHGTTDYAAPVKGRFTLSRDDSKNTLFLQMNNLKTEDTGVYYCATDRSDVRFLEWLGNYQFGMDVWGQGTTVAVSS
VL: EIVLTQSPGTLSLSPGERATLSCRASHSVSSSYLAWYQQKPGQAPRLLIFGASSRATGIPDRFSGSGSGTDFTLTISRLEPEDFAVYYCQQYLTSPPGWTFGQGTKVEIK
In the case of B14, the “PRNT IC50” value came out at 0.327 µg/mL in experiment [4] and 0.2 µg/mL in experiment [5].

B15: M2B6 (antibody, V domains shown)
VH: QVQLQESGPGLVKPSETLSLTCSVSGASIGGYYWGWIRQPPGKGLEWLGYIYYSGRTVYSPSLRGRLALSLDMSRQQLSLRLRSVAAADTAVYYCASLTITPGWFDSWGPGTLVTVSS
VL: QSVLTQPPSVSGAPGQRVTISCTGSSSNIGAGYDVHWYQQFPGSAPKLLIYGNTKRPSGVPDRFSGSTSGSSASLAITGLQTEDEAEYYCQSYERNLDGALFGGGTKLSVL
For B15, the “PRNT IC50” value worked out at 0.0092 µg/mL in experiment [6], 0.0237 µg/mL in experiment [4] and 0.044 µg/mL in experiment [5].

B16: M1C7s (antibody, V domains shown)
VH: QVQLVQSGPEVRKPGSSVRVSCKASGGTFTRLTITWVRQAPGQGLEWMGRIIPAVDITNYAPKFQGRVTITADKSTGAVYMDLISLTSDDTAIYFCATVLDWSNALDIWGQGTMVTVSS
VL: DIVMTQTPLSLSVTPGQPASISCKSSESLLNSDGKTYLFWYLQKPGQSPQVLIYDLSSRFSGVPERFSGSGSGTDFTLKISRVEPEDVGIYYCMQGLHLPWTFGRGTRLEIKR
In the case of B16, the “PRNT IC50” value in experiment [4] was determined as 0.0092 µg/mL; in experiment [5] it was 0.015 µg/mL.

B17: M3A03 (antibody, V domains shown)
VH: QVQLVQSGAEVKKPGASVKVSCKASAYTFTSYGITWVRQAPGQGLEWMGWISAYRGNTKYAQKLQGRVTMTTDTSTSTASMELRSLRSDDTAVYYCARTSYYDSSYYPIDYWGQGTLVTVSS
VL: SYVLTQPPSVSVAPGQTARITCGGNNIGSKSVQWYQQKPGQAPVLVVYDDSDRPSGIPERFSGSNSGNTATLTISRVEAGDEADYYCQVWDSSGDRVVFGGGTKLTVL
notes: IgG
Regarding B17, the Octet binding response was 0.568 nm in the experiment with hMPV PostF trimer, 0.0409 nm in experiment [1] and 0.181 nm in experiment [2]. Besides, the “processed/unprocessed PreF trimer binding ratio” value in experiment [3] was 0.23.
